We go through 1 molecule from patent publication US20190135911A1, “TREATING RESPIRATORY DISEASES BY TARGETING INTERLEUKIN 4 INDUCED 1 (IL4I1)” (Five Prime Therapeutics, Inc., priority 2016, published 2019).

Entries after “also recorded” stand apart in the source; their conditions may differ.

The test relates to moDCs in co-culture with bronchial epithelial cells from COPD patients. The experiment in a line: moDC / COPD bronchial epithelial cell co-culture treated with IL4I1, DC mRNA levels (Quantigene multiplex panel). Format: cell-based, human. Conditions: IL4I1 serially diluted into basolateral media; 24 hr BEC pre-incubation, 24 hr co-culture with DCs (COPD donor #AB63); normalized to GAPDH; FIG. 2. From the text: To differentiate airway epithelium in vitro, healthy smoker derived bronchial epithelial cells (Lonza lot #7F3833, 489, 237440, 899; Epithelix lot #13086) and COPD patient derived bronchial epithelial cells (Lonza lot #3313, 498, 3207, 3379; Epithelix lot #AB63, 472) were expanded according to the Lonza protocol with the following modification: the cells were subjected to two passages in Lonza BEBM media with supplements as reported in Widdicombe et al. (BioTechniques 39:249-255, August 2005). Cells were seeded onto collagen coated 0.4 um 96 transwell plates at 15,000 cells per 75 μl of the above media, and 235 μl of the same media was added to the basolateral receiver plate. After 3 days (with a single apical media change of the same volume), the apical media was completely removed in an airlift. To induce differentiation the cells were then cultured for 18 days with PneumaCult-ALI Medium (StemCell Technologies, #05001).
DC were generated as follows. […] After 48 hrs of cell culture, DC were lysed and mRNA levels were measured by microarray. […]
Co-cultures were initiated as described above. […] After 24 hr coculture the DCs were lysed and mRNA levels were measured with an Affymetrix Quantigene multiplex panel on a FlexMap 3D instrument. For each gene the relative luminescence was normalized to a housekeeper gene GAPDH.

B1: IL4I1: Human IL4I1 protein (R&D Systems #5684-AO) added to the co-culture media (protein, UniProt Q96RQ9 22-567, looked up)
L-amino-acid oxidase: QDWKAERSQDPFEKCMQDPDYEQLLKVVTWGLNRTLKPQRVIVVGAGVAGLVAAKVLSDAGHKVTILEADNRIGGRIFTYRDQNTGWIGELGAMRMPSSHRILHKLCQGLGLNLTKFTQYDKNTWTEVHEVKLRNYVVEKVPEKLGYALRPQEKGHSPEDIYQMALNQALKDLKALGCRKAMKKFERHTLLEYLLGEGNLSRPAVQLLGDVMSEDGFFYLSFAEALRAHSCLSDRLQYSRIVGGWDLLPRALLSSLSGLVLLNAPVVAMTQGPHDVHVQIETSPPARNLKVLKADVVLLTASGPAVKRITFSPPLPRHMQEALRRLHYVPATKVFLSFRRPFWREEHIEGGHSNTDRPSRMIFYPPPREGALLLASYTWSDAAAAFAGLSREEALRLALDDVAALHGPVVRQLWDGTGVVKRWAEDQHSQGGFVVQPPALWQTEKDDWTVPYGRIYFAGEHTAYPHGWVETAVKSALRAAIKINSRKGPASDTASPEGHASDMEGQGHVHGVASSPSHDLAKEEGSHPPVQGQLSLQNTTHTRTSH
Consider B1, for which the “mRNA expression of dendritic cell genes (CXCL5, PTGES, S100A8, SERPINB2, THBS1)” value is listed as “enhanced mRNA expression; also recorded: further enhances the expression”.
